Here are results for 14 molecules from patent US7238711.

“And” between values parts separate entries of the source, which are not always exact repeats. Equal entries are not always repeated. No end group written: not given here.

Assay [1] has as its target cell surface molecule on THP-1 cells. As to the kind of experiment: binding of biotinylated peptide 3 to THP-1 cells, labeled streptavidin.
The target of assay [2] is T1, CXCR1 (human), P25024.
T1 chain: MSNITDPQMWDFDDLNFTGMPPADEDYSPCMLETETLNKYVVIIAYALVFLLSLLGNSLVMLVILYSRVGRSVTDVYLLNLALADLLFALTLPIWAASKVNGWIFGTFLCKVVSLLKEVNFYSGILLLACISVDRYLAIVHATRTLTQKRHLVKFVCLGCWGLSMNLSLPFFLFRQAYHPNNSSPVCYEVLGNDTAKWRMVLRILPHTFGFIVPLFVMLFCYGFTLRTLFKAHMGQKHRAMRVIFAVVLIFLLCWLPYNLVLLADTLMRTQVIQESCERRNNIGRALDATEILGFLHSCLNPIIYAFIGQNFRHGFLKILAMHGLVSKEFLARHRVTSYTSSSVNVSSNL
As to the kind of experiment: biotin-labeled peptide at 10 µM on CHO transformants, 125I-streptavidin.

Assay [3] concerns the target T2, CXCR2 (human), P25025.
T2 chain: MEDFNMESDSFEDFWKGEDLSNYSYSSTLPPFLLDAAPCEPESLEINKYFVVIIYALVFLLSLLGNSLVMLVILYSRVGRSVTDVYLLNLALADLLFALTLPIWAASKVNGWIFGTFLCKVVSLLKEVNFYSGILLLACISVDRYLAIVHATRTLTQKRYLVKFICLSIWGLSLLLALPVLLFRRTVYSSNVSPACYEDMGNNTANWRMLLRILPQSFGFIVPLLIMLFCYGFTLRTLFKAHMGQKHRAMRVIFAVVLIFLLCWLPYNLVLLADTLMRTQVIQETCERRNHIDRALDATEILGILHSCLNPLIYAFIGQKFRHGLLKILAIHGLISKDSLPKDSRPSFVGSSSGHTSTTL
The description is as above.

The target of assay [4] is T3, CCR1 (human), P32246.
T3 chain: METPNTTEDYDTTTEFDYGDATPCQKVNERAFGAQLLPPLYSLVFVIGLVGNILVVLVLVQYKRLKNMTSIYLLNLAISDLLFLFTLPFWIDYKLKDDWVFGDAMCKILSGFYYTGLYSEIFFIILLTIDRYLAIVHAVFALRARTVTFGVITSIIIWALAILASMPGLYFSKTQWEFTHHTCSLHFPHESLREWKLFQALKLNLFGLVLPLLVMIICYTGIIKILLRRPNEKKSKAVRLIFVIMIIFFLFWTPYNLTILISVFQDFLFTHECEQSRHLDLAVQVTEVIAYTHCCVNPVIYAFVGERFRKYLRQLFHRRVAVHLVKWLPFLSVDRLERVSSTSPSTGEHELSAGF
As to the kind of experiment: biotin-labeled peptide at 10 µM on HOS transformants, 125I-streptavidin.

In assay [5] the target is CCR2 (human), P41597. The assay is described as above.
Sequence of CCR2 (human), P41597 (P41597 whole entry): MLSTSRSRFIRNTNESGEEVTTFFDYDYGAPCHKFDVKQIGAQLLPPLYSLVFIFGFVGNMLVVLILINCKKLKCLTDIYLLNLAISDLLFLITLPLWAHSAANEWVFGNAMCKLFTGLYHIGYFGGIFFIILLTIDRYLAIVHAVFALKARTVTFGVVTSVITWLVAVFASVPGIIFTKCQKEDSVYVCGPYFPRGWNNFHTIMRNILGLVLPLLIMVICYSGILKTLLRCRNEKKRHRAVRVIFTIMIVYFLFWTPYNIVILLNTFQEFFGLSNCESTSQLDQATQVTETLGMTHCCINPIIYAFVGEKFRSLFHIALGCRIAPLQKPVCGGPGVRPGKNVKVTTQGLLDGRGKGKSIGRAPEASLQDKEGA
Assay [6] deals with T4, CCR3 (human), P51677.
T4 chain: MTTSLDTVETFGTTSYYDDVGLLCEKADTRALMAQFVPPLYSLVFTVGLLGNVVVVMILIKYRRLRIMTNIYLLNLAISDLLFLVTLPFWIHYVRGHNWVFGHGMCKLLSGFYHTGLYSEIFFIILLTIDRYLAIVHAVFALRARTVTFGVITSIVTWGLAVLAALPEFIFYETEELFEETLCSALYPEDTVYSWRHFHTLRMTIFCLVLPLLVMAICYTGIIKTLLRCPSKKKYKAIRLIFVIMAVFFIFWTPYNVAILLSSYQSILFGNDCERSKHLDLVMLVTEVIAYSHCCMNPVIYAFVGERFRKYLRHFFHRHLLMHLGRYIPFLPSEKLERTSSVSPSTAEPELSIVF
Described as above.

The target in assay [7] is T5, CCR4 (human), P51679.
T5 chain: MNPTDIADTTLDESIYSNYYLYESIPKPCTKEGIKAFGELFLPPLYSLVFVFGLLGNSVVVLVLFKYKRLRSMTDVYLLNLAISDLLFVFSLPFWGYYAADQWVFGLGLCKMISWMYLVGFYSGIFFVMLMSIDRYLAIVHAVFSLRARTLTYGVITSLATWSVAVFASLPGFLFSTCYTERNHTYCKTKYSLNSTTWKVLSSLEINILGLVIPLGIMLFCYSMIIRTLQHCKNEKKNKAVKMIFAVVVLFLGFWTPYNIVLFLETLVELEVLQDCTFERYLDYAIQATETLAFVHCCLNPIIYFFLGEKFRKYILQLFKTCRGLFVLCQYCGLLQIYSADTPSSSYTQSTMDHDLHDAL
The assay is described as above.

Assay [8] addresses CCR5 (human), P51681. Described as above.
Assay [9] has as its target T6, CXCR4 (human), P61073.
T6 chain: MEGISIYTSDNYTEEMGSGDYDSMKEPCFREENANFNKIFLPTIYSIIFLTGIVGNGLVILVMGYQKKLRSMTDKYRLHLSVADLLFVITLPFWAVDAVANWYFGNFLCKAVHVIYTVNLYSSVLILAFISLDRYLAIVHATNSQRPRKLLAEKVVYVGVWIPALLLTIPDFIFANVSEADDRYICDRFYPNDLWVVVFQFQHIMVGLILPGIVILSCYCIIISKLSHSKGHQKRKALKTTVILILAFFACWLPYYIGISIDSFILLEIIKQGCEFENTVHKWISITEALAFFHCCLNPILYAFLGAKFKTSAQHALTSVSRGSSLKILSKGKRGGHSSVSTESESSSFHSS
Described as above.

The target of assay [10] is T7, Duffy Antigen Receptor for Chemokines (DARC) (human), Q16570.
T7 chain: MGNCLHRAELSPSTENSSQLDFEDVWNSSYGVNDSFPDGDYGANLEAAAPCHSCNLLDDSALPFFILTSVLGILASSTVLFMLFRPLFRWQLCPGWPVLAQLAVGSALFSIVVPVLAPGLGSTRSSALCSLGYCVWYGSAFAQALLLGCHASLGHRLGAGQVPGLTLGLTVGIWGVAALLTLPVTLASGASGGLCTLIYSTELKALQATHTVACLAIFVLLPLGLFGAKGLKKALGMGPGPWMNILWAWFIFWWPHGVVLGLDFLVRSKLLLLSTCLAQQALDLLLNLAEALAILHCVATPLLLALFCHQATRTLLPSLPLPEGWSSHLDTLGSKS
Put plainly: ka for red blood cells divided by ka for THP-1 cells.

Assay [11] addresses chemokine receptors on THP-1 cells. Put plainly: receptors on THP-1 cells against DARC.
Assay [12] deals with T7, Duffy Antigen Receptor for Chemokines …. As to the kind of experiment: estimated ka for red blood cells divided by average inhibitory ED50.
Assay [13] has as its target MCP-1 (human), P13500. Put plainly: cell-based or functional assay.
The target of assay [14] is chemokine receptors.
The target in assay [15] is Duffy Antigen Receptor for Chemokines (DARC) (human) (UniProt Q16570). Put plainly: estimated ka for red blood cells divided by average inhibitory ED50.
For assay [16], the target named is chemokine receptors on THP-1 cells. As to the kind of experiment: binding to THP-1 cells.
In assay [17] the target is chemokine receptors on the surface of Jurkat cells. As to the kind of experiment: binding to Jurkat cells.
Assay [18] addresses CCR5 (human), P51681. Put plainly: cell-based or functional assay.
Assay [19] deals with chemokine receptors on THP-1 cells. As to the kind of experiment: binding to THP-1 cells (given as association constant).
The target of assay [20] is Duffy Antigen Receptor for Chemokines (DARC) (human) (UniProt Q16570). Put plainly: DARC binding, red blood cells (given as association constant).
For assay [21], the target named is CCR5 (human), P51681. As to the kind of experiment: 12-point Scatchard, HOS CCR5 line. Conditions: remark: other sources report otherwise.
Sequence of CCR5 (human), P51681 (P51681 whole entry): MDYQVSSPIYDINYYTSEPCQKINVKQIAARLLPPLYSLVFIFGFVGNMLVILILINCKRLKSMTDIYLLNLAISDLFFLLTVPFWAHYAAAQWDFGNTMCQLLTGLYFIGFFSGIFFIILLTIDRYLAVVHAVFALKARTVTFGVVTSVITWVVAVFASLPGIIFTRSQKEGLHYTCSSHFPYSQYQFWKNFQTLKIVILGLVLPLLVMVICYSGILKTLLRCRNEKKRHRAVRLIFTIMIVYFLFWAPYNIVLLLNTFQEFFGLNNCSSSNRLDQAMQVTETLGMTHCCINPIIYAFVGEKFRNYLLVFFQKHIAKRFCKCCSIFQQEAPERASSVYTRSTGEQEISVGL
Assay [22] deals with CCR5 (human), P51681. As to the kind of experiment: 125I-RANTES Scatchard, HOS CCR5 line. Conditions: remark: other sources report otherwise.
The target of assay [23] is CCR5 (human), P51681. As to the kind of experiment: 12-point Scatchard, 0.03 nM 125I-RANTES with cold RANTES, 4° C., 2 hours. Conditions: remark: other sources report otherwise.
Assay [24] addresses CCR5 (human), P51681. Put plainly: 12-point Scatchard, parental HOS line (the filing suggests background CCR5). Conditions: remark: other sources report otherwise.
In assay [25] the target is CCR5 (human), P51681. Put plainly: 125I-RANTES Scatchard, parental HOS line (the filing suggests background CCR5). Conditions: remark: other sources report otherwise.

Sequence of MCP-1 (human), P13500 (P13500 24-99 limits assumed): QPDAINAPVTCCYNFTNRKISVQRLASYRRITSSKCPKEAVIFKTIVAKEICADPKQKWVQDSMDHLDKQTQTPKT

A word on the Kd: it is the concentration at which binding is half-saturated. A low value points to higher affinity. On to CLDPKQKWIQC (not fully specified (N-terminus); cysteine pairing not given here) [N-terminal biotin conjugate of the sequence n'-…-c'], for which the binding sites per cell (receptors/cell) in assay [1] is 1000. Moreover, the Kd in assay [2], in assay [3], in [4], in [5], in assay [6] and in assay [7] was over 10 µM throughout. Moreover, the Kd in assay [8] and in assay [9] was over 10 µM each time.
For ELRVIESGPHCANTEI (not fully specified) [Pep2(1-16)[IL8]], the Duffy selectivity in [10] is under 1.
EICLDPKQKWIQ (not fully specified) [Leu4Ile11 peptide 3(1-12)[MCP-1]] showed a fold selectivity over DARC in assay [11] of over 20 fold. Moreover, the Duffy selectivity in [12] was 37.8.
On to AQPDAINAPVTCC (not fully specified; cysteine pairing not given here) [Peptide 1[MCP-1]], for which the inhibition of MCP-1 induced THP-1 migration, peptide with the chemokine in the lower compartment in [13] amounted to 48%.
Usually IC50 stands for the point on the concentration scale where inhibition reaches its midpoint. HLKILNTPNCALQIV [Pep2(1-15)[SDF1]] gave an IC50 in assay [14] of 35 µM.
Consider CQVWKQKPDAC (not fully specified (some residues, bridges); cysteine pairing not given here) [CRD-Cys13pep3[3-12]], for which the Duffy selectivity in assay [15] is 8.82.
With CADPKQKWVQ (not fully specified) [Pep3(3-12)[MCP-1]], the Duffy selectivity in [12] was 1.21.
The same measure, in the same setting: with EICADPSEEWVQ (not fully specified) [Ser7Glu8Glu9 peptide 3(1-12)[MCP-1]] the figure was 0.59.
Regarding DYFETSSQCSKPGV [Pep2(1-14)[MIP1α]], in assay [14], the IC50 was over 100 µM. In addition, in [16], the binding sites per cell (sites per cell) came out at 150000.
Take SYRRITSSKCPKEAV [peptide 2(1-15)[MCP-1]]: the IC50 in assay [14] is 0.4 µM. In addition, the values for the binding sites per cell in [16] and in [17] were 130000 sites/cell and 55000 sites/cell, respectively.
Turning to EICADPSQKWVQ (not fully specified) [Ser7 peptide 3(1-12)[MCP-1]], the Duffy selectivity in assay [12] is 2.
With EICADPKQKWVQ (not fully specified) [peptide 3(1-12)[MCP-1]], the decrease in HIV infection of THP-1 cells, immunofluorescence staining in assay [18] is 83%. For the same molecule, the Duffy selectivity in [12] (remark: other sources report otherwise) was 1.
In assay [16], CQIWKQKPDLC (not fully specified (some residues, bridges); cysteine pairing not given here) [CRD-Cys13Leu4Ile11 peptide 3(3-12)[MCP-1]] showed a binding sites per cell (sites per cell) of 150000. For the same molecule, the Kd in [19] is 0.1 to 0.5 µM; in assay [20], 90 µM. Besides, the Duffy selectivity in assay [15] was over 100.

B1: RANTES, P13501 24-91 (ligand, UniProt P13501 24-91, looked up)
chain: SPYSSDTTPCCFAYIARPLPRAHIKEYFYTSGKCSNPAVVFVTRKNRQVCANPEKKWVREYINSLEMS
B1: the binding sites per cell (sites per cell) is 200000 in [21]; 200000 and 400000 in assay [22]; 100000 in [24]; 80000 in assay [25]. The same molecule had a Kd in [23] of 0.001 µM.
